# Source: article PMC3462190, “A Peptidic Unconjugated GRP78/BiP Ligand Modulates the Unfolded Protein Response and Induces Prostate Cancer Cell Death” (PLoS ONE, 2012)
# Where no end group is shown, it is not given here.
# What was measured:
# BPH-1 cells = test: Clonogenic assay; type: cell-based, Human; settings: benign prostate cells, 19-mer vector vs control; at least three experiments
# Experimental: Figure 6 Selectivity of action of the Bag-1 peptide. A Amino acid sequence of the 19mer peptide and its deletion mutants. B GST pull-down assay performed incubating 400 µg of 22Rv.1 cell lysate and 25 µg of GST-fused deletion mutants of the 19mer peptide. After the pull-down experiment, Western blots were carried out with anti-GRP78/BiP and GST antibodies. C. Fluorescence polarization (FP) assays with a 10 nM FITC-labeled 7-mer Bag-1 peptide and dilutions of the GST-fused substrate binding domain of GRP78 in 60 µl of Tris-GSH buffer (50 mM Tris, 10 mM reduced glutathione and 0.1% BSA, pH 8.0). Triplicate samples were measured after 5 h of incubation at room temperature with an Infinite F-200 reader (Tecan) with excitation at 490 nm and emission at 535 nm. Binding constants were determined from three independent experiments using non-linear regression in Sigma Plot 10.0. D. Competition assays with a complex of 10 nM of FITC-labeled Bag-1 7-mer peptide and 0.75 mg/ml GST-fused GRP78 substrate binding domain was measured against a dilution series from 100 µM to 0.1 nM of wild-type Bag-1 7-mer peptide (filled line) or triple mutant peptide (dotted line) in 40 µl of Tris-GSH buffer. […] Fluorescence polarization was determined as described above and IC50 values were determined in Sigma Plot. […] The colonies were stained and quantified. […]
# 22Rv.1 xenograft tumor = test: TUNEL assay on xenograft tumor sections; type: in vivo, athymic nude mice; settings: 22Rv.1 xenografts, clones P25, P29 and P42 vs V18, V19 and V33
# Experimental: Tissues were fixed in 10% formalin for 16 h at room temperature, stored in ethanol (50%), paraffin embedded, and sectioned 5 µm thick with a Leica RM 2155 microtome. Apoptotic cells were detected via terminal deoxynucleotidyl transferase-mediated deoxyuridine-triphosphate-biotin nick end labeling (TUNEL) assay using the DNA fragmentation ApopTag® peroxidase in situ apoptosis detection kit (Millipore, Schwalbach, Germany).
# Figure 4 The Bag-1 peptide inhibits prostate cancer cell growth in vivo. A. Stable clones of 22Rv.1 cells show reduced cell viability in vitro. Stable clones were seeded in a 96-well plate and the cell number in each well was estimated by measuring the ratio between the wavelength of excitation and emission 560/590 nm using the CellTiter-Blue™ proliferation assay. The bar charts represent the mean of at least four independent experiments ±SD (*p<0.05). B. Determination of the level of the Bag-1 expressed in the 22Rv.1 clones. Cellular extracts of 22v.1 stable clones were subjected to Western blot analysis. An anti-HA antibody was used to detect the peptide and an anti-β-actin antibody for equal loading control. […] Tumor size was measured once per week using a caliper and expressed as tumor volume in mm^3. […] Nuclei are stained blue-purple with hematoxylin while apoptotic cells detected with the TUNEL assay are stained brown. […]
# 22Rv.1 cells = test: CellTiter-Blue proliferation/viability assay; type: cell-based; settings: 22Rv.1 clones P25, P29 and P42 vs vector clones V18, V19 and V33; no ER stress; 2 days; at least four independent experiments, p<0.05
# Experimental: CellTiter-Blue® cell viability assay kit (Promega) was used for the determination of cell viability. Briefly 22Rv.1 cells stably overexpressing the Bag-1 peptide were seeded into two 96 well plate (4500 cells/well) and the measurements were performed in triplicate. One plate was analyzed at day 0 and the other plate, 2 days later. Three hours after seeding, 20 µl of dye were added to each well containing 100 µl of culture medium and incubated for 4 h at 37°C. Fluorescence was measured by the plate-reading fluorometer FluoStar Optima (2001, BMG Labtechnology, software version 1.10–0) and presented as the ratio of the value at the excitation wavelength (560 nm) over the emission wavelenght (590 nm). Cell proliferation was determined from the difference between the fluorescence intensity at the final time point and the value obtained at the day of seeding of the cells (day 0).
# Figure 4 The Bag-1 peptide inhibits prostate cancer cell growth in vivo. A. Stable clones of 22Rv.1 cells show reduced cell viability in vitro. […] Tumor size was measured once per week using a caliper and expressed as tumor volume in mm^3. […] Nuclei are stained blue-purple with hematoxylin while apoptotic cells detected with the TUNEL assay are stained brown. […]
Molecule,BPH-1 growth in clonogenic assay (BPH-1 cells),TUNEL positive cells (apoptosis) (22Rv.1 xenograft tumor),proliferation (22Rv.1 cells)
19-mer: Bag-1L 202–220 (TPLSALGIQDGCRVMLIGK; not fully specified),not growth inhibited,–,–
"Bag-1 peptide: internal sequence of 68 amino acids of Bag-1 (Bag1-L 202–269), HA-tagged, expressed from pcDNA3 (also: HA tag, end not given here) TPLSALGIQDGCRVMLIGKKNSPQEEVELKKLKHLEKSVEKIADQLEELNKELTGIQQGFLPKDLQAE",–,strong signals indicative of massive apoptosis,significantly reduced proliferation
